Reference: paper PMC4119751 (Biochemistry, 2013)
Substitutions are numbered along the chain they refer to. Like-named read-outs stand apart in the source and are kept apart here. Bridge positions count the residues as written; N and C are the ends. Ends that are not written are not given here.

T1: 14-mer V3 peptide KRIHIGPGRAFYTT (MN sequence) (HIV-1 strain MN, V3 crown (peptide))
T1 chain: KRIHIGPGRAFYTT

T2: V3 peptide with Arg^315Gln mutation KRIHIGPGQAFYTT (HIV-1 strain MN, V3 crown, Arg315Gln …, point mutant)
T2 chain: KRIHIGPGQAFYTT

B1: Fv 447–52D Tyr^H100JThr (other, human)
VH: EVQLVESGGGLVKPGGSLRLTCVASGFTFSDVWLNWVRQAPGKGLEWVGRIKSRTDGGTTDYAASVKGRFTISRDDSKNTLYLQMNSLKTEDTAVYSCTTDGFIMIRGVSEDYYYTYMDVWGKGTTVTVSS
VL: QSVLTQPPSVSAAPGQKVTISCSGSSSNIGNNYVLWYQQFPGTAPKLLIYGNNKRPSGIPDRFSGSKSGTSATLGITGLQTGDEADYFCATWDSGLSADWVFGGGTKLTVL
B2: Fv 447–52D Trp^H33Ala (other, human)
VH: B1 VH with W33A, T116Y
VL: B1 VL
B3: Fv 447–52D Asp^H95Asn (other, human)
VH: B1 VH with D101N, T116Y
VL: B1 VL
B4: Fv 447–52D Trp^L91Ala (other, human)
VH: B1 VH with T116Y
VL: B1 VL with W92A
B5: Fv 447–52D Trp^L96Ala (other, human)
VH: B1 VH with T116Y
VL: B1 VL with W100A
B6: Fv 447–52D wild type (other, human)
VH: B1 VH with T116Y
VL: B1 VL

Assays:
[1] = molecular target: V3_(MNCYCLIC) 14mer peptide … (HIV-1 strain MN); assay: ITC
[2] = molecular target: Env of HIV-1 SF162 on pseudovirus (HIV-1 strain SF162)
wild type Fv 447–52D = assay: ITC, V3 peptide variants titrated into wild type Fv 447–52D; format: binding, human; details: linear and cyclic V3 with wild type Fv, ITC 25 °C
[3] = molecular target: T1, 14-mer V3 peptide KRIHIGPGRAFYTT (MN …); assay: ITC
[4] = molecular target: T1, 14-mer V3 peptide KRIHIGPGRAFYTT (MN …); assay: ITC
SF162 pseudovirus = assay: TZM-bl neutralization assay against SF162 pseudovirus; format: cell-based, HIV-1; details: Fv mutant vs wild type Fv
[5] = molecular target: T1, 14-mer V3 peptide KRIHIGPGRAFYTT (MN …); assay: ITC
[6] = molecular target: T2, V3 peptide with Arg^315Gln mutation …; assay: ITC

Molecule	IC50 of neutralisation of SF162 pseudovirus, TZM-bl cells (luciferase) [2] [µM]	other [3] [kcal/mol]	Kd [4] [µM]	also measured
Fv 447–52D wild type	19	–	–	Kd [1]: 0.016 µM
CRIHIGPGRAFYTC (disulfide 1-14 (inferred)) [V3 Cyclic]	–	–	–	effect of cyclization on affinity (in words) (wild type Fv 447–52D): cyclization of the V3 crown did not affect much of its interaction with mAb 447–52D
B1	23	3.3	1.3	–
B2	68	4.02	3.9	–
B3	41	5.04	3.9	–
B4	76	4.72	–	fold decrease in neutralization capability (SF162 pseudovirus): 4.0 fold; Kd [5]: 5.4 µM
B5	50	1.22	–	Kd [5]: 1.8 µM
B6	–	–	0.023	dH [3]: -8.54 kcal/mol; Kd [6]: 5.1 µM
